Data published in patent US12552834 (MIT, dated 2026).

Molecular target: T1, ENAH EVH1 domain (monomeric, wild type) (human, UniProt Q03173 1-111 (mouse entry))
T1 construct: ENAH residue numbers in the text count from the Met at position 25 of this entry; also called ENAH EVH1 WT; Mena EVH1 WT
Experiment: BLI, steady state; SUMO-peptide immobilised, EVH1 monomer in solution
Protocol: All BLI experiments were performed with 2 replicates on an Octet Red96 instrument (ForteBio). […] The loaded tips were immersed in a solution of ENAH EVH1 domain at a relevant dilution series in BLI buffer at an orbital shake speed of 1000 rpm and run until the binding signal plateaued. ENAH-bound tips were subsequently placed into BLI buffer only for dissociation and run until the binding signal plateaued. K_D values were obtained through steady state analysis. […] The association phases were then fit to a one-phase binding model in Prism and the equilibrium steady-state binding signal values from that fit were plotted against ENAH concentration and fit to a single-site specific binding model in Prism to obtain dissociation constants. Errors reported are the standard deviation of two replicates.

T1 sequence (Q03173 other isoform, or with tags, fused parts or gaps limits assumed): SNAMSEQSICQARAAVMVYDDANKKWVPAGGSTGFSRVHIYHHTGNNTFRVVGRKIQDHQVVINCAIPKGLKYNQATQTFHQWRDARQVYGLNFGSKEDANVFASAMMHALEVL

Row | Binder | Kd
1 | ABI3 36-mer peptide (biotinylated (BAP tag), Tested as a biotinylated BAP-6xHis-SUMO-peptide fusion) peptide: MAGGLNDIFEAQKIEWHEDTGGSSHHHHHHGSGSGSDSEVNQEAKPEVKPEVKPETHINLKVSDGSSEIFFKIKKTTPLRRLMEAFAKRQGKEMDSLTFLYDGIEIQADQTPEDLDMEDNDIIEAHREQIGGSGSGSPPPPDEELPLPLDLPPPPPLDGDELGLPPPPPGFG | 13.6 µM
2 | TJAP1 36-mer peptide (biotinylated (BAP tag), Tested as a biotinylated BAP-6xHis-SUMO-peptide fusion) peptide: MAGGLNDIFEAQKIEWHEDTGGSSHHHHHHGSGSGSDSEVNQEAKPEVKPEVKPETHINLKVSDGSSEIFFKIKKTTPLRRLMEAFAKRQGKEMDSLTFLYDGIEIQADQTPEDLDMEDNDIIEAHREQIGGSGSGPEEELPLPAFEKLNPYPTPSPPHPLYPGRRVIEFSE | 23.9 µM
3 | TNK2 36-mer peptide (biotinylated (BAP tag), Tested as a biotinylated BAP-6xHis-SUMO-peptide fusion) peptide: MAGGLNDIFEAQKIEWHEDTGGSSHHHHHHGSGSGSDSEVNQEAKPEVKPEVKPETHINLKVSDGSSEIFFKIKKTTPLRRLMEAFAKRQGKEMDSLTFLYDGIEIQADQTPEDLDMEDNDIIEAHREQIGGSGSGTPVVDWDARPLPPPPAYDDVAQDEDDFEICSINSTL | 21.2 µM
4 | SYNPO2 36-mer peptide (biotinylated (BAP tag), Tested as a biotinylated BAP-6xHis-SUMO-peptide fusion) peptide: MAGGLNDIFEAQKIEWHEDTGGSSHHHHHHGSGSGSDSEVNQEAKPEVKPEVKPETHINLKVSDGSSEIFFKIKKTTPLRRLMEAFAKRQGKEMDSLTFLYDGIEIQADQTPEDLDMEDNDIIEAHREQIGGSGSGKSPIADFPAPPPYSAVTPPPDAFSRGVSSPIAGPAQ | 52.1 µM
5 | FHOD1 peptide (biotinylated (BAP tag), Tested as a biotinylated BAP-6xHis-SUMO-peptide fusion) peptide: MAGGLNDIFEAQKIEWHEDTGGSSHHHHHHGSGSGSDSEVNQEAKPEVKPEVKPETHINLKVSDGSSEIFFKIKKTTPLRRLMEAFAKRQGKEMDSLTFLYDGIEIQADQTPEDLDMEDNDIIEAHREQIGGSGSGSVPPPPPLPPPPPIKGPFPPPPPLPLAAPLPHSVPD | 50.4 µM
6 | NUTM2E 36-mer peptide (biotinylated (BAP tag), Tested as a biotinylated BAP-6xHis-SUMO-peptide fusion) peptide: MAGGLNDIFEAQKIEWHEDTGGSSHHHHHHGSGSGSDSEVNQEAKPEVKPEVKPETHINLKVSDGSSEIFFKIKKTTPLRRLMEAFAKRQGKEMDSLTFLYDGIEIQADQTPEDLDMEDNDIIEAHREQIGGSGSGVVPVMAAQVVGGTQACEGGWSQGLPLPPPPPPAAQL | 33.9 µM
7 | KIAA1522 36-mer peptide (biotinylated (BAP tag), Tested as a biotinylated BAP-6xHis-SUMO-peptide fusion; also called KIAAA1522) peptide: MAGGLNDIFEAQKIEWHEDTGGSSHHHHHHGSGSGSDSEVNQEAKPEVKPEVKPETHINLKVSDGSSEIFFKIKKTTPLRRLMEAFAKRQGKEMDSLTFLYDGIEIQADQTPEDLDMEDNDIIEAHREQIGGSGSGPPAPEEQDLSMADFPPPEEAFFSVASPEPAGPSGSP | 14 µM
8 | FBLIM1 36-mer peptide (biotinylated (BAP tag), Tested as a biotinylated BAP-6xHis-SUMO-peptide fusion) peptide: MAGGLNDIFEAQKIEWHEDTGGSSHHHHHHGSGSGSDSEVNQEAKPEVKPEVKPETHINLKVSDGSSEIFFKIKKTTPLRRLMEAFAKRQGKEMDSLTFLYDGIEIQADQTPEDLDMEDNDIIEAHREQIGGSGSGPPVLDGEDVLPDLDLLPPPPPPPPVLLPSEEEAPAP | 16 µM
9 | FYB1 36-mer peptide (biotinylated (BAP tag), Tested as a biotinylated BAP-6xHis-SUMO-peptide fusion) peptide: MAGGLNDIFEAQKIEWHEDTGGSSHHHHHHGSGSGSDSEVNQEAKPEVKPEVKPETHINLKVSDGSSEIFFKIKKTTPLRRLMEAFAKRQGKEMDSLTFLYDGIEIQADQTPEDLDMEDNDIIEAHREQIGGSGSGSGSGGIFPPPPDDDIYDGIEEEDADDGFPAPPKQLD | 24.3 µM
10 | SHROOM3 36-mer peptide (biotinylated (BAP tag), Tested as a biotinylated BAP-6xHis-SUMO-peptide fusion) peptide: MAGGLNDIFEAQKIEWHEDTGGSSHHHHHHGSGSGSDSEVNQEAKPEVKPEVKPETHINLKVSDGSSEIFFKIKKTTPLRRLMEAFAKRQGKEMDSLTFLYDGIEIQADQTPEDLDMEDNDIIEAHREQIGGSGSGVYSMDDFPPPPPHTVCEAQLDSEDPEGPRPSFNKLS | 9.3 µM
